# T1: CD70 (Homo sapiens, UniProt P32970)
# T1 sequence (P32970 1-193): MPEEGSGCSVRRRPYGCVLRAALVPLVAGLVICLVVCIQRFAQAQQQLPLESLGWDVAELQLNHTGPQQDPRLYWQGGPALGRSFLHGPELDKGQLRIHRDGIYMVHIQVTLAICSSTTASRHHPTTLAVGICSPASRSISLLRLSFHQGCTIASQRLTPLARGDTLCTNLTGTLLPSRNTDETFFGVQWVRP
# B1: ARGX-110: IgG1 anti-CD70 antibody with defucosylated Fc region; VH SEQ ID NO: 4, VL SEQ ID NO: 8 (antibody, V domains shown)
# VH: EVQLVESGGGLVQPGGSLRLSCAASGFTFSVYYMNWVRQAPGKGLEWVSDINNEGGTTYYADSVKGRFTISRDNSKNSLYLQMNSLRAEDTAVYYCARDAGYSNHVPIFDSWGQGTLVTVSS
# VL: QAVVTQEPSLTVSPGGTVTLTCGLKSGSVTSDNFPTWYQQTPGQAPRLLIYNTNTRHSGVPDRFSGSILGNKAALTITGAQADDEAEYFCALFISNPSVEFGGGTQLTVLG
# modifications: IgG1, defucosylated Fc; Custom antibody fragment
# Experiments:
# LSCs = test: Methylcellulose colony assays of patient mononuclear cells (LSC number/frequency, ELDA); type: in vivo, human
# Method: FIGS. 9A-9F αCD70 mAb treatment reduces CD34^+CD38^− AML stem/progenitor cell frequencies in AML patients. (FIG. 9A) Colony formation of P2. 10^4 BM MNCs of patient P002 at diagnosis (SCR) and 14 days after administration of ARGX110 (1 mg/kg i.v., time point 0, or C1D1) were plated in methylcellulose and colony formation was assessed 2 weeks later. (FIG. 9B) Fold change in colony formation of different patients treated with indicated doses of ARGX110. (FIG. 9C) Colony formation at limiting dilution from P2. (FIG. 9D) Stem cell frequencies at SCR and Time point 0 determined in enhanced limiting dilution experiments for P2 and different patients treated with indicated doses of ARGX110. Data are represented as mean±S.D. Statistics: (a, b, e) Student's t-test; (FIG. 9E): χ^2 test; **, P<0.01; ***, P<0.001. (FIG. 9F) Colony formation of P2. 10^4, 5×10^3, 10^3 and 10^2 BM MNCs of patient P002 at diagnosis (SCR), 14 days after administration of ARGX110 (1 mg/kg i.v., time point 0, or C1D1) and after combination treatment (“combi”) were plated in methylcellulose and colony formation was assessed 2 weeks later.
# To assess bone marrow blasts, bone marrow aspirates taken at the various time points were analysed. Methylcellulose colony assays using FACS sorted monocytes (mononuclear cells (CD45^dim) were selectively sorted by excluding doublets, dead cells and lymphocytes using Annexin V and antibodies for CD19 and CD4/CD8) were used to assess the number of LSCs in the bone marrow. In addition, bone marrow blast percentages were also assessed by cell morphology and flow cytometric analysis.
# To further explore the impact of the mono and combination therapies on the LSC populations in patients, methylcellulose colony assays using FACS sorted ex vivo monocytes were performed. Mononuclear cells (CD45^dim) were selectively sorted by excluding doublets, dead cells and lymphocytes using Annexin V and antibodies for CD19 and CD4/CD8 and serially plated on methylcellulose for 14 days.
# Bone marrow aspirate taken at day 1 was compared to bone marrow aspirate taken before administration of the ARGX-110 loading dose. Methylcellulose colony assays using FACS sorted monocytes (mononuclear cells (CD45^dim) were selectively sorted by excluding doublets, dead cells and lymphocytes using Annexin V and antibodies for CD19 and CD4/CD8) were used to assess the number of LSCs in the bone marrow.
# CD70 = target: T1, CD70; settings: cited from earlier work
# AML = test: Phase I/II trial of ARGX-110 with AZA: clinical response; type: in vivo, human; settings: for Time to best response: cycle/day
# Text: The study included a screening phase (between Day −35 and Day −14), a loading dose of ARGX-110 (Day −14) and an open-label treatment phase during which subjects visited the study center for administration of the study drug (Day −14 until disease progression), and end-of-treatment (EOT) evaluations performed within 7 days after the last ARGX-110 treatment. Additional follow-up evaluations were scheduled at 30 and 60 days (±7 days) after the EOT date. The 60-days follow-up visit was also the end-of-study (EOS) visit.
# Clinical response to treatment was categorised according Table 3: […]
# [1] = ARGX-110 concentration in bone marrow aspirates versus plasma; type: in vivo, human
# Method: Concentration of ARGX-110 in bone marrow aspirates was measured in limited samples and compared to the matching plasma samples.
# [2] = Phase I/II trial: peripheral blood counts; type: in vivo, human
# Text: By C2D17, the percentage of blasts in peripheral blood was 0.8% by flow cytometry and 0% by cell morphology.
# Patient 1001003 is a person with AML with myelodysplasia-related changes by WHO classification (AML-M2 by FAB classification) and 24% bone marrow blasts. […] Blast percentage at C1D1 was stable.
# [3] = Serum pharmacokinetics of ARGX-110 (ELISA); type: in vivo, human
# Method: FIG. 11 The serum concentration of ARGX-110 was analyzed using a validated enzyme-linked immunosorbent assay (ELISA) method. Individual patient PK plots are provided for 10 mg/kg cohort. The PK plot presents data for ARGX-110 cycle1 (D-14 pre-dose until Cycle1 D1 pre-dose).
# The serum concentrations of ARGX-110 were analysed using a validated enzyme-linked immunosorbent assay (ELISA) method. The following pharmacokinetic parameters were assessed: • Cmax: maximum observed concentration; Ctrough: trough concentration; AUC∞: area under the serum concentration-time curve from time zero to infinity; AUCtau: area under the serum concentration-time curve during the dosing interval; Vd: apparent volume of distribution; CL: total systemic clearance of drug after IV administration; t1/2: half-life.
# The serum concentration of ARGX-110 was analysed using a validated enzyme-linked immunosorbent assay (ELISA) method. FIG. 11 provides individual patient PK plots for the 10 mg/kg cohort. The PK plot presents data for ARGX-110 cycle 1 (D-14 pre-dose until Cycle1 D1 pre-dose).
# [4] = patient 1001002, loading dose 1 mg/kg
# [5] = patients treated for sufficient time to assess response
# [6] = patient 1001005, 3 mg/kg, Cycle 7 Day 2
# [7] = patient 1001007, 10 mg/kg, Cycle 4 Day 1
# [8] = patient 1001002, 1 mg/kg with AZA, C3D17
# [9] = patient 1001003, with AZA, C2D1
molecule,measurement,setting,value
B1,reduction in LSC frequency compared to baseline,"LSCs; FIG. 9F, after monotherapy (C1D1) and combination therapy (C4D1)",~24 fold
same,number of cells per colony,LSCs; following therapy (data not shown),reduced
same,circulating LSC levels,"LSCs; monotherapy, then combination",reduced
same,factor of reduction of the number of LSCs in the bone marrow,"LSCs; patient 1001001, single dose 1 mg/kg, day 1 vs before loading dose, ELDA","140,000"
same,cell number per colony,LSCs; [4],reduced
same,factor of reduction of LSCs in the bone marrow,LSCs; [4],2
same,decrease of colony formation,"LSCs; patient 1001002, loading dose 1 mg/kg, all informative serial dilution concentrations",greater than 50%
same,CD70-induced CD27 signalling,CD70,inhibit CD70-induced CD27 signalling
same,interaction of CD70 with CD27,CD70,inhibit the interaction of CD70 with its receptor CD27
same,Time to best response,"AML; Cohort 1 (1 mg/kg) with AZA, one line per patient, 1 mg/kg",EOT
same,Time to best response,"AML; Cohort 2 (3 mg/kg) with AZA, one line per patient, 3 mg/kg",EOT
same,Best response to date,"AML; Cohort 4 (20 mg/kg) with AZA, one line per patient, 20 mg/kg",No response
same,patients in each cohort showing complete remission,"AML; each of the 1 mg/kg, 3 mg/kg and 10 mg/kg cohorts",2 of the 3
same,patients responding (response rate),AML; [5],more than 90%
same,responding patients / assessed patients,AML; [5],10/11
same,CARGX-110 BM aspirate,[1]; [6],33.1 µg/mL
same,CARGX-110 plasma,[1]; [6],37.3 µg/mL
same,CARGX-110 BM aspirate,[1]; [7],117.7 µg/mL
same,CARGX-110 plasma,[1]; [7],126.6 µg/mL
same,concentration in bone marrow aspirates versus plasma,[1]; patients 1001005 and 1001007,comparable to the plasma levels
same,Hb,[2]; [8],10.2 g/dL
same,absolute neutrophil count (ANC),[2]; [8],0.97 G/L
same,platelets,[2]; [8],128 G/L
same,ANC,[2]; [9],0.38 G/L
same,Hb,[2]; [9],9.2 g/dL
same,platelets,[2]; [9],98 G/L
same,half-life,[3]; 10 mg/kg,approximately 9.2 days
same,Cmax and AUC over the dose range studied,[3]; all cohorts,dose proportionality

# Reference: patent US20190106498A1, “TREATMENT FOR ACUTE MYELOID LEUKEMIA” (priority 2017, published 2019)
